Data as given in EP0832971B1.
Where “and” joins values, the source holds several entries; their conditions need not be identical. Equal values may be shown once.

Tests used:
[1] = target: HIV-1 strain HTLV-IIIB (virus grown in H9 cells; envelope glycoprotein gp120 on the virus) (HIV-1 strain HTLV-IIIB) (UniProt P04578); assay: cell-based or functional assay
[2] = target: gp120, the major envelope glycoprotein of HIV-I (radioiodinated 125I-gp120; unlabeled purified gp120) (HIV-1); assay: saturation binding of 125I-gp120 in solution, immunoprecipitation with OKT4, Scatchard analysis

For “gDCD4T (first 27 residues of mature HSV type I gD glycoprotein fused to mature CD4T; product of pRKGDCD4T) (from UniProt Q69091 1-27; P01730 1-368) (receptor)”, the Indirect immunofluorescence (% positive cells), 1:4 inhibitor supernatant (% positive cells) [1] was 26.8 and 36.1, the Reverse transcriptase (cpm/ml x 10^5), 1:4 inhibitor supernatant [1] was 992000 cpm/ml and 1.13e+06 cpm/ml and the Reverse transcriptase (cpm/ml x 10^5), undil. inhibitor supernatant [1] was 14000 cpm/ml and 23000 cpm/ml. It also gave a Kd [2] of 0.72 nM.

For “CD4T (product of pRKCD4T: CD4 fused after residue 368 of mature CD4 to 9 residues coded by pBR322) (from UniProt P01730 26-393) (receptor)”, the Indirect immunofluorescence (% positive cells), 1:4 inhibitor supernatant (% positive cells) [1] was 18 and 16.1, the Indirect immunofluorescence (% positive cells), undil. inhibitor supernatant (% positive cells) [1] was 0.4 and 0.8 and the Reverse transcriptase (cpm/ml x 10^5), 1:4 inhibitor supernatant [1] was 594000 cpm/ml and 372000 cpm/ml. For the same substance, the Reverse transcriptase (cpm/ml x 10^5), undil. inhibitor supernatant [1] was 11000 cpm/ml and 15000 cpm/ml and the Kd [2] was 0.83 nM.
